Blank lines part the entries; values can stand above or below the binder they belong to.
Experiments:
[1] = target: T1, hFGFR2 ECD 22-378 His-tag (human, UniProt P21802-3, biotin (Abcam Biotinylation Kit) in the epitope binning only); assay: BLI; Octet RED96e, 25°C, 1,000 rpm, 1x kinetic buffer; antibodies captured on anti-human Fc (AHC) biosensors at 0.5 ug/mL; hFGFR2 ECD 22-378 His-tag as analyte, 7 2-fold dilutions from 100 nM; association 300 s, dissociation 600 s; 1:1 model, global fit; apparent Kd for the biparatopic antibodies; settings: both partners purified
T1 construct: human FGFR2 extracellular domain, residues 22-378, SinoBiological 16485-H08H; also called hFGFR2 ECD AA22-AA378 His-tag; source: bought: SinoBiological

[2] = target: T2, hFGFR2 ECD 22-378 His-tag (Homo sapiens, UniProt P21802-3); assay: BLI; Octet RED96e, 25 C, 1,000 rpm, 1x kinetic buffer; antibody captured on anti-human Fc (AHC) biosensor at 0.5 ug/mL; hFGFR2 ECD 22-378 His-tag as analyte, 7 two-fold dilutions from 100 nM; 1:1 model, global fit; apparent; settings: both partners purified
T2 construct: FGFR2, human, extracellular domain residues 22-378 (SinoBiological 16485-H08H); Analyte of the BLI kinetics; also called hFGFR2 ECD AA22-AA378 His-tag; source: bought: SinoBiological

[3] = target: T3, full-length FGFR2-BICC1 on NIH3T3 cells (Homo sapiens, UniProt P21802-3, chimera); assay: flow cytometry on cells; NIH3T3 cells expressing full-length FGFR2-BICC1 or its D1, D2, D3 or D2+D3 deletion variants, parental antibody A-F at 10 μg/mL in 1x PBS (Mg2+ free), 1.5 hours at room temperature; anti-human IgG secondary antibody; settings: one partner purified
T3 construct: FGFR2 part of the fusion, from its N-terminus with the extracellular domain to the breakpoint; the printed Gln361 fits the IIIb isoform (FGFR2b); BICC1 part of the fusion; also called FL; source: NIH3T3, transfected, on cells

[4] = target: T4, hFGFR2 ECD 22-378 His-tag (Homo sapiens, UniProt P21802-3, biotin in the epitope binning only (Abcam Biotinylation Kit)); assay: BLI; Octet RED96e, 25°C, 1x kinetic buffer; antibodies captured on Anti-Human Fc capture biosensor at 0.5 μg/mL; hFGFR2 ECD 22-378 His-tag as analyte, 2-fold dilutions from 100 nM; 1:1 binding model; apparent affinity; settings: both partners purified
T4 construct: human FGFR2 extracellular domain, residues 22-378; The antigen of the MSD-SET assay and the FGFR2 ECD of the SEC-MALS experiment are not described; also called hFGFR2 ECD AA22-AA378 His-tag; antigen; source: bought: SinoBiological

[5] = target: T5, FGFR2 on SNU16 cells (FGFR2 amplification) (Homo sapiens (SNU-16, endogenous), UniProt P21802-3); assay: flow cytometry on cells; SNU-16 cells incubated with serial dilutions of parental antibody A-F in 1x PBS (Mg2+ free), 1.5 hours at room temperature; anti-human IgG secondary antibody; fit with a ligand-binding quadratic equation; apparent Kd; settings: one partner purified
T5 construct: FGFR2 endogenous on SNU16 cells; source: endogenous, SNU16 cells
T5 sequence (P21802 22-821): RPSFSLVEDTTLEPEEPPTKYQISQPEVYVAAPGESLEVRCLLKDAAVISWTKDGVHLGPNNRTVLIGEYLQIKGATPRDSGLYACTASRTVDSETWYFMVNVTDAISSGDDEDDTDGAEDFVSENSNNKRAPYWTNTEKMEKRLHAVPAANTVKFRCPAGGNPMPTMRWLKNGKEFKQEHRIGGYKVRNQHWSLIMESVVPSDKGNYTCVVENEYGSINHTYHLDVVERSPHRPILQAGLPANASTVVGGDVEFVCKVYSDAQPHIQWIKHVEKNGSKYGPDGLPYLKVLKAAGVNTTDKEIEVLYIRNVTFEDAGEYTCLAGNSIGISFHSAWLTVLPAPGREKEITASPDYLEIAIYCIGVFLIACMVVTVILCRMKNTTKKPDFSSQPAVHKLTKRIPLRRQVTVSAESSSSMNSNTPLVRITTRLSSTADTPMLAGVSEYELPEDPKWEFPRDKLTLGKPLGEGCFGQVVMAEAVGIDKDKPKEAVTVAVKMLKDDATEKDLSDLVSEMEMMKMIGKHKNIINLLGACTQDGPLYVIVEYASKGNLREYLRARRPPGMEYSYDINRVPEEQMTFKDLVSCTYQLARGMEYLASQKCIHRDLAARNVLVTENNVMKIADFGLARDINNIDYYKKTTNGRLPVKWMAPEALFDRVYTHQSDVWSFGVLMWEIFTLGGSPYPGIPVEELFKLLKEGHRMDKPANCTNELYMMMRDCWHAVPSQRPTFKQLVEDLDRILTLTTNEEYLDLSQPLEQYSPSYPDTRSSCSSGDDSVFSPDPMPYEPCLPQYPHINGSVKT

T1 sequence (P21802 other isoform, or with tags, fused parts or gaps): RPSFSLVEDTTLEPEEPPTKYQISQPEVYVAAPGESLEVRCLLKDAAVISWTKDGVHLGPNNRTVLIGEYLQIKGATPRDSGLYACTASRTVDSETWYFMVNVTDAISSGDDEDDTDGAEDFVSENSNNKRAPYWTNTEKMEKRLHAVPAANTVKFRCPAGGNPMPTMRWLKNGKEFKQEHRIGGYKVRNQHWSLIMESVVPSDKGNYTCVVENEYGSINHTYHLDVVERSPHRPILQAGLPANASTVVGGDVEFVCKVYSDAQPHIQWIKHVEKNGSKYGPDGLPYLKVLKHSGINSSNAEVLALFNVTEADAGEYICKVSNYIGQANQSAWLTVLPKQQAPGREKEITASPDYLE
T4 sequence (P21802 other isoform, or with tags, fused parts or gaps): as above
T3 sequence (P21802 whole entry, looked up, stated change not applied, the tested form may be a part, canonical isoform): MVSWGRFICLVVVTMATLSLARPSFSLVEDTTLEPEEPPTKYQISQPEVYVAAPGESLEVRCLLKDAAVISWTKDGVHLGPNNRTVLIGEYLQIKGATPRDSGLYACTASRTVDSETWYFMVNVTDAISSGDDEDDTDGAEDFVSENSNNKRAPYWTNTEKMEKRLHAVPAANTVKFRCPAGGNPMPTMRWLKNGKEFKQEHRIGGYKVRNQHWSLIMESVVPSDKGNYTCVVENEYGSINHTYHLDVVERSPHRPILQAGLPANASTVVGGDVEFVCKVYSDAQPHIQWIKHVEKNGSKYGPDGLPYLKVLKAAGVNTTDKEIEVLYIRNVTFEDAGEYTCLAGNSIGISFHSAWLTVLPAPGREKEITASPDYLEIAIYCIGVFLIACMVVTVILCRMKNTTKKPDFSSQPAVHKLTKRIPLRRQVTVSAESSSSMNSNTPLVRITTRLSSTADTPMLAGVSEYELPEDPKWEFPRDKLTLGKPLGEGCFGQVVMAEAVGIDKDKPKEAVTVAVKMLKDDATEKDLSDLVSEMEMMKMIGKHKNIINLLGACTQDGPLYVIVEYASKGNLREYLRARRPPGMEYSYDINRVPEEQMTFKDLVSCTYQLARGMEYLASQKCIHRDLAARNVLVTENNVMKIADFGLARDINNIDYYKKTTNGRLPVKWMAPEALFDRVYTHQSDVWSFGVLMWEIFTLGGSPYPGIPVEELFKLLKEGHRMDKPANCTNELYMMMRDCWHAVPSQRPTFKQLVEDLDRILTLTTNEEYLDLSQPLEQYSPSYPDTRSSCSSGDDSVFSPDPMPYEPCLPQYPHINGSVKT

Kd [1]: 2.79 nM
koff [1]: 0.000741 s⁻¹
kon [1]: 282000 M⁻¹ s⁻¹
B1: Anti-FGFR2 parental antibody D (antibody, V domains shown)
VH: EVQLVESGGGLVQPGGSLRLSCAASGFPFTSTGISWVRQAPGKGLEWVGRTHLGDGSTNYADSVKGRFTISADTSKNTAYLQMNSLRAEDTAVYYCARTYGIYDTYDMYTEYVMDYWGQGTLVTVSS
VL: DIQMTQSPSSLSASVGDRVTITCRASQDVDTSLAWYKQKPGKAPKLLIYSASFLYSGVPSRFSGSGSGTDFTLTISSLQPEDFATYYCQQSTGHPQTFGQGTKVEIK
notes: VH of antibody D; VL of antibody D; Full human IgG1; also produced with F405L or K409R in the Fc for Fab-arm exchange; The label 'GE' in some supplementary panels probably means D; also called Ab-D; copies: 2 + 2

Kd [2]: 2.79 nM
B2: anti-FGFR2 parental antibody D (antibody, V domains shown)
VH: EVQLVESGGGLVQPGGSLRLSCAASGFPFTSTGISWVRQAPGKGLEWVGRTHLGDGSTNYADSVKGRFTISADTSKNTAYLQMNSLRAEDTAVYYCARTYGIYDTYDMYTEYVMDYWGQGTLVTVSS
VL: DIQMTQSPSSLSASVGDRVTITCRASQDVDTSLAWYKQKPGKAPKLLIYSASFLYSGVPSRFSGSGSGTDFTLTISSLQPEDFATYYCQQSTGHPQTFGQGTKVEIK
notes: heavy chain of antibody D; light chain of antibody D; IgG1; also called Ab-D; copies: 2 + 2

binding result [3]: binds
B3: FGFR2 parental antibody D (antibody, V domains shown)
VH: EVQLVESGGGLVQPGGSLRLSCAASGFPFTSTGISWVRQAPGKGLEWVGRTHLGDGSTNYADSVKGRFTISADTSKNTAYLQMNSLRAEDTAVYYCARTYGIYDTYDMYTEYVMDYWGQGTLVTVSS
VL: DIQMTQSPSSLSASVGDRVTITCRASQDVDTSLAWYKQKPGKAPKLLIYSASFLYSGVPSRFSGSGSGTDFTLTISSLQPEDFATYYCQQSTGHPQTFGQGTKVEIK
notes: heavy chain of antibody D, IgG1; light chain of antibody D; IgG1; One of the six parental antibodies is the parental antibody of bemarituzumab; also called Ab-D; copies: 2 + 2

binding result [4]: binds
binding result [3]: binds
binding result [5]: binds
B4: FGFR2 parental antibody E (antibody, V domains shown)
VH: QVQLVQSGAEVKKPGSSVKVSCKASGYIFTTYNVHWVRQAPGQGLEWIGSIYPDNGDTSYNQNFKGRATITADKSTSTAYMELSSLRSEDTAVYYCARGDFAYWGQGTLVTVSS
VL: DIQMTQSPSSLSASVGDRVTITCKASQGVSNDYAWYQQKPGKAPKLLIYSASYRYTGVPSRFSGSGSGTDFTFTISSLQPEDIATYYCQQHSTTPYTFGQGTKLEIK
notes: heavy chain of antibody E, IgG1; light chain of antibody E; IgG1; One of the six parental antibodies is the parental antibody of bemarituzumab; Also used as the FGFR2 immunoblot reagent (Genscript); also called Ab-E; copies: 2 + 2

Kd [1]: 5.5 nM
koff [1]: 0.000316 s⁻¹
kon [1]: 53100 M⁻¹ s⁻¹
B5: Anti-FGFR2 parental antibody B (antibody, V domains shown)
VH: QIQLVQSGPELKKPGETVKISCKASGYTFTDFGMNWMKQAPGKGFKWMGWINTSTGESTYADDFKGRFAFSLETSASTAYLQINNLKNEDMATYFCARNSYYGGSYGYWGQGTTLTVSS
VL: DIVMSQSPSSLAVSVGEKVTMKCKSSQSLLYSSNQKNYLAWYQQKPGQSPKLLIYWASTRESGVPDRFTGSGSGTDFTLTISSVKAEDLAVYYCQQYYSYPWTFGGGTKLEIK
notes: VH of antibody B; VL of antibody B; Full human IgG1; also produced with F405L or K409R in the Fc for Fab-arm exchange; The label 'Gal' in some supplementary panels probably means B; also called Ab-B; copies: 2 + 2

Kd [2]: 5.5 nM
B6: anti-FGFR2 parental antibody B (antibody, V domains shown)
VH: QIQLVQSGPELKKPGETVKISCKASGYTFTDFGMNWMKQAPGKGFKWMGWINTSTGESTYADDFKGRFAFSLETSASTAYLQINNLKNEDMATYFCARNSYYGGSYGYWGQGTTLTVSS
VL: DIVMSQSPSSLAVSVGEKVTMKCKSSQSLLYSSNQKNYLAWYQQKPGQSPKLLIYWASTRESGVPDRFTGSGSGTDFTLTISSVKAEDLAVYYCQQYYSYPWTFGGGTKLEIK
notes: heavy chain of antibody B; light chain of antibody B; IgG1; also called Ab-B; copies: 2 + 2

binding result [3]: binds
B7: FGFR2 parental antibody B (antibody, V domains shown)
VH: QIQLVQSGPELKKPGETVKISCKASGYTFTDFGMNWMKQAPGKGFKWMGWINTSTGESTYADDFKGRFAFSLETSASTAYLQINNLKNEDMATYFCARNSYYGGSYGYWGQGTTLTVSS
VL: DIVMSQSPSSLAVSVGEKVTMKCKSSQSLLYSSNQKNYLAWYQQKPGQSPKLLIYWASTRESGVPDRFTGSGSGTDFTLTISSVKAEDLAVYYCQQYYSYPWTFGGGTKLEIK
notes: heavy chain of antibody B, IgG1; light chain of antibody B; IgG1; One of the six parental antibodies is the parental antibody of bemarituzumab; also called Ab-B; copies: 2 + 2

binding result [4]: binds
binding result [3]: binds
binding result [5]: binds
B8: FGFR2 parental antibody A (antibody, V domains shown)
VH: EVQLLESGGGLVQPGGSLRLSCAASGFTFSSYAMSWVRQAPGKGLEWVSAISGSGTSTYYADSVKGRFTISRDNSKNTLYLQMNSLRAEDTAVYYCARVRYNWNHGDWFDPWGQGTLVTVSS
VL: QSVLTQPPSASGTPGQRVTISCSGSSSNIGNNYVSWYQQLPGTAPKLLIYENYNRPAGVPDRFSGSKSGTSASLAISGLRSEDEADYYCSSWDDSLNYWVFGGGTKLTVL
notes: heavy chain of antibody A, IgG1; light chain of antibody A; IgG1; One of the six parental antibodies is the parental antibody of bemarituzumab; also called Ab-A; copies: 2 + 2

Kd [1]: 7.05 nM
koff [1]: 0.00292 s⁻¹
kon [1]: 417000 M⁻¹ s⁻¹
B9: Anti-FGFR2 parental antibody C (antibody, V domains shown)
VH: QVQLVESGGGLVKPGGSLRLSCAASGFTFSSYALSWVRQAPGKGLEWVGRIRSKIDGGTTDYAAPVKGRFTISRDDSKNTLYLQMNSLKTEDTAVYYCARDRSPSDSSAFAIWGQGTLVTVSS
VL: DIELTQPPSVSVSPGQTASITCSGDNLGSQYVDWYQQKPGQAPVLVIYDDNDRPSGIPERFSGSNSGNTATLTISGTQAEDEADYYCQSWDSLSVVFGGGTKLTVL
notes: VH of antibody C; VL of antibody C; Full human IgG1; The label 'N10' in some supplementary panels probably means C; also called Ab-C; copies: 2 + 2

binding result [3]: binds
B10: FGFR2 parental antibody C (antibody, V domains shown)
VH: QVQLVESGGGLVKPGGSLRLSCAASGFTFSSYALSWVRQAPGKGLEWVGRIRSKIDGGTTDYAAPVKGRFTISRDDSKNTLYLQMNSLKTEDTAVYYCARDRSPSDSSAFAIWGQGTLVTVSS
VL: DIELTQPPSVSVSPGQTASITCSGDNLGSQYVDWYQQKPGQAPVLVIYDDNDRPSGIPERFSGSNSGNTATLTISGTQAEDEADYYCQSWDSLSVVFGGGTKLTVL
notes: heavy chain of antibody C, IgG1; light chain of antibody C; IgG1; One of the six parental antibodies is the parental antibody of bemarituzumab; also called Ab-C; copies: 2 + 2

Kd [2]: 7.05 nM
B11: anti-FGFR2 parental antibody C (antibody, V domains shown)
VH: QVQLVESGGGLVKPGGSLRLSCAASGFTFSSYALSWVRQAPGKGLEWVGRIRSKIDGGTTDYAAPVKGRFTISRDDSKNTLYLQMNSLKTEDTAVYYCARDRSPSDSSAFAIWGQGTLVTVSS
VL: DIELTQPPSVSVSPGQTASITCSGDNLGSQYVDWYQQKPGQAPVLVIYDDNDRPSGIPERFSGSNSGNTATLTISGTQAEDEADYYCQSWDSLSVVFGGGTKLTVL
notes: heavy chain of antibody C; light chain of antibody C; IgG1; also called Ab-C; copies: 2 + 2

binding result [4]: binds
binding result [3]: binds
binding result [5]: binds
B12: FGFR2 parental antibody F (antibody, V domains shown)
VH: QVQLVQSGAEVKKPGESLKISCKGSGYSFTNYYIHWVRQMPGKGLEWMGAIYPDNSDTTYSPSFQGQVTISADKSISTAYLQWSSLKASDTAMYYCARGADIWGQGTLVTVSS
VL: DIQMTQSPSSLSASVGDRVTITCRASQDIDPYLSNWYQQKPGKAPKLLIYDASNLQSGVPSRFSGSGSGTDFTLTISSLQPEDFATYYCQQTTSHPYTFGQGTKVEIK
notes: heavy chain of antibody F, IgG1; light chain of antibody F; IgG1; One of the six parental antibodies is the parental antibody of bemarituzumab; also called Ab-F; copies: 2 + 2
